Data on 1 molecule can be found in paper PMC4615246 (Nucleus, 2015).

Holding throughout (experiment): LacI/LacO array recruitment in cells
The target of one assay is T1, LacI-CFP-Nup50 (human, UniProt Q9UKX7 1-468).
T1 sequence: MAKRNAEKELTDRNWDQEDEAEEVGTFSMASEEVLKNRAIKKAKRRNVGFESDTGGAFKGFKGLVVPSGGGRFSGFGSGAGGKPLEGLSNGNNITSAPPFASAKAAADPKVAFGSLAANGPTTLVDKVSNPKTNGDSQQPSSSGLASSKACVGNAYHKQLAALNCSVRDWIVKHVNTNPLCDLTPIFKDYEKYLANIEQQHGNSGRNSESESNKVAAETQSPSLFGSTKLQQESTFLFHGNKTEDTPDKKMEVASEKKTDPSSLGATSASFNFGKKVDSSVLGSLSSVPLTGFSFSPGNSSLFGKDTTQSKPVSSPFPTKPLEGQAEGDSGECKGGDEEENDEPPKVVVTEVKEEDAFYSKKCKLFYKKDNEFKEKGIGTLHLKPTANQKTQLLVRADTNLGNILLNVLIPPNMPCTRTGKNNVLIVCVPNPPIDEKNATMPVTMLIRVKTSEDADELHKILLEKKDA

The target of the next assay is T2, LacI-CFP-Nup107 (human, UniProt P57740 1-925).
T2 sequence: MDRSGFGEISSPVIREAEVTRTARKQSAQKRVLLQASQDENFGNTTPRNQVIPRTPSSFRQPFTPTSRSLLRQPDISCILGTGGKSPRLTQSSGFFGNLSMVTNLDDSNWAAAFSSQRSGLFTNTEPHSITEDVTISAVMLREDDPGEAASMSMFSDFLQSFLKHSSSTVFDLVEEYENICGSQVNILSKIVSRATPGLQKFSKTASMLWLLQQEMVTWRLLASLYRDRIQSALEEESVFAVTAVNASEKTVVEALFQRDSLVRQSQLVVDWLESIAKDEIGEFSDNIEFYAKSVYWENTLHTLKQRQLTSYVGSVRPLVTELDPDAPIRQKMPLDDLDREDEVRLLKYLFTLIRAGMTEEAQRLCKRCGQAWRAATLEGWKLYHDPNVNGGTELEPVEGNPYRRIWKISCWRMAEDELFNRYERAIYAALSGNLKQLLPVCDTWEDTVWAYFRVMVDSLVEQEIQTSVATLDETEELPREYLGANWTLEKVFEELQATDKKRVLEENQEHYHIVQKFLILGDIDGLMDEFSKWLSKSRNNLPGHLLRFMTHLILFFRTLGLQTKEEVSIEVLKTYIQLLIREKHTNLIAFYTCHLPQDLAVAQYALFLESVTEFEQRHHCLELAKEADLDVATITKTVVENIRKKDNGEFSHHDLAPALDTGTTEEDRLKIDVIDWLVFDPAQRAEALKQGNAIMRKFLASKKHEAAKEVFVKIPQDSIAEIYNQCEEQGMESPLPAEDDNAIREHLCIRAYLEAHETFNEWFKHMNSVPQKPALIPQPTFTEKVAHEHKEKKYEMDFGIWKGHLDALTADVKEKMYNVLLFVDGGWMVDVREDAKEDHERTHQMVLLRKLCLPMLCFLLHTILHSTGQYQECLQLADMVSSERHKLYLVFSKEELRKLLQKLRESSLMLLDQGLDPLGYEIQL

The target in another assay is T3, LacI-CFP-Nup133 (human, UniProt Q8WUM0 1-1156).
T3 sequence: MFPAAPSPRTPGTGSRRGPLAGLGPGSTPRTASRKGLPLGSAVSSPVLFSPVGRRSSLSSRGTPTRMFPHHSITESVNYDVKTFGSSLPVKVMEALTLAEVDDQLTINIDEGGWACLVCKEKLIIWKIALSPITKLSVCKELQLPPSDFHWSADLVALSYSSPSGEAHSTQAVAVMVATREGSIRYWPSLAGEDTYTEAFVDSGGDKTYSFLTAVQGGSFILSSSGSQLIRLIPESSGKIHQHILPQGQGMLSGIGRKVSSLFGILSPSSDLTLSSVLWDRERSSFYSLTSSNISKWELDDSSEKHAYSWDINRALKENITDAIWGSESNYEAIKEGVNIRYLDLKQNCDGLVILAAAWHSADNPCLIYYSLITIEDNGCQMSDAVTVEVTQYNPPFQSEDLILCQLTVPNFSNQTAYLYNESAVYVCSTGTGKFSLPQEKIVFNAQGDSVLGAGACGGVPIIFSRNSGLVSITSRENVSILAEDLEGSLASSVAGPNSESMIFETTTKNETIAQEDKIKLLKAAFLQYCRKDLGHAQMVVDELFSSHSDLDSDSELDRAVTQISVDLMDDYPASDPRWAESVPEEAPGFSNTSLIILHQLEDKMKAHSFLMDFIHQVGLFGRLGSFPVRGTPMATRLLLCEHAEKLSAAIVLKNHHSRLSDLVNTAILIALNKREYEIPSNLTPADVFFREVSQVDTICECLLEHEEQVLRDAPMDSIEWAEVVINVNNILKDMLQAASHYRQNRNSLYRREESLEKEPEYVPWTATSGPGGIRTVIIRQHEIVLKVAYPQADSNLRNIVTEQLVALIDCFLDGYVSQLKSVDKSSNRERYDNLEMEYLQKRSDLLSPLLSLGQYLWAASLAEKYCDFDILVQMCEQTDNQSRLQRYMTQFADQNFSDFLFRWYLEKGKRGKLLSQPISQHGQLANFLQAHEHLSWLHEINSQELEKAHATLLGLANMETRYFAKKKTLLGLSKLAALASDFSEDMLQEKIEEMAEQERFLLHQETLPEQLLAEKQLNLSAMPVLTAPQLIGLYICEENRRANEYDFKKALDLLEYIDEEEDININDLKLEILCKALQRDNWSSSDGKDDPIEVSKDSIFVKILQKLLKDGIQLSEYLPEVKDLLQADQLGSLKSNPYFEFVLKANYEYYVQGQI

B1: Nup85 (endogenous) (natural protein)
chain: MEELDGEPTVTLIPGVNSKKNQMYFDWGPGEMLVCETSFNKKEKSEMVPSCPFIYIIRKDVDVYSQILRKLFNESHGIFLGLQRIDEELTGKSRKSQLVRVSKNYRSVIRACMEEMHQVAIAAKDPANGRQFSSQVSILSAMELIWNLCEILFIEVAPAGPLLLHLLDWVRLHVCEVDSLSADVLGSENPSKHDSFWNLVTILVLQGRLDEARQMLSKEADASPASAGICRIMGDLMRTMPILSPGNTQTLTELELKWQHWHEECERYLQDSTFATSPHLESLLKIMLGDEAALLEQKELLSNWYHFLVTRLLYSNPTVKPIDLHYYAQSSLDLFLGGESSPEPLDNILLAAFEFDIHQVIKECSIALSNWWFVAHLTDLLDHCKLLQSHNLYFGSNMREFLLLEYASGLFAHPSLWQLGVDYFDYCPELGRVSLELHIERIPLNTEQKALKVLRICEQRQMTEQVRSICKILAMKAVRNNRLGSALSWSIRAKDAAFATLVSDRFLRDYCERGCFSDLDLIDNLGPAMMLSDRLTFLGKYREFHRMYGEKRFADAASLLLSLMTSRIAPRSFWMTLLTDALPLLEQKQVIFSAEQTYELMRCLEDLTSRRPVHGESDTEQLQDDDIETTKVEMLRLSLARNLARAIIREGSLEGS
For B1, the results for the “percent of transfected cells showing colocalization” value with LacI-CFP-Nup50, with LacI-CFP-Nup107 and in the assay with LacI-CFP-Nup133 were 32%, 88% and 86%, respectively.
